We go through 2 substances from PMC9097488.

In general, stoichiometry N refers to the number of molecules, sites or subunits per partner or assembly.

For assay [1], the target named is Crenotalea thermophila TIR-APAZ after removal of the 6xHis-MBP tag (Crenotalea thermophila). Nature of the assay: SEC-MALS. For orientation: In gel filtration, larger molecules generally elute earlier.
For assay [2], the target named is MapSPARTA complex (heterodimer of MapAgo and MapTIR-APAZ) (Maribacter polysiphoniae). Nature of the assay: SEC-MALS.

As for “Crenotalea thermophila short pAgo (natural protein)”, the stoichiometry N in assay [1] was 1.

In the case of “MapSPARTA complex (heterodimer of MapAgo and MapTIR-APAZ)”, in assay [2], the stoichiometry N came to 4.
